Test results reported in patent US20090130114A1 (Amgen, published 2009).

T1: human WISE (human, UniProt Q6X4U4 24-206)
T1 construct: Recombinant, made in E. coli or mammalian cells; biotinylated in the ELISAs, amine-coupled to CM5 in Biacore; also called huWise; huWISE
T1 sequence: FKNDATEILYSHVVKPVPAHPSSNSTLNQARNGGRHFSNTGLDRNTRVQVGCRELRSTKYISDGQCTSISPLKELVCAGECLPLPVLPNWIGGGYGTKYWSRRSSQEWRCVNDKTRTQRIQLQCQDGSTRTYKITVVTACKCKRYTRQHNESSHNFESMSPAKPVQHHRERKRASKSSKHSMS


target: T1, human WISE; assay: assay not specified (IgG2 from transient transfection)

Row | Binder | binding result
1 | Ab-1 (antibody, human IgG2, lambda, V domains shown, Phage-derived human light chain with the humanized Ab-C IgG2 heavy chain, transiently expressed in 293 6E cells) VH: QVQLVQSGAEVKKPGSSVKVSCKASGGTFSSTYISWVRQAPGQGLEWMGWIYAGTGGTRYNRKFTGRVTITADESTSTAYMELSSLRSEDTAVYYCAREGVDGWFTYWGQGTLVTVSS VL: QSVVTQPPSVSGAPGQRVTMSCTGSSSNLGAGYDVNWYQQLPGKAPKVLIYGNEIRPSGVPDRFSGSKSDTSATLDITGLQTGDEADYYCETWDSSLSTVVFGGGTKLTVLG | binds
2 | light chain of SEQ ID NO: 112 paired with the heavy chain of SEQ ID NO: 24 (antibody, human IgG2, kappa, V domains shown) VH: QVQLVQSGAEVKKPGSSVKVSCKASGGTFSSTYISWVRQAPGQGLEWMGWIYAGTGGTRYNRKFTGRVTITADESTSTAYMELSSLRSEDTAVYYCAREGVDGWFTYWGQGTLVTVSS VL: DIQMTQSPGTLSLSPGERATLSCRTSQSVSSTSVAWYQQKPGQAPRLLMYDASSRAAGIPDRFSGSGSVTDFTLTISRLEPEDFATYYCQQSYSLPYTFGQGTKVEIKR | binds
3 | Ab-48 (antibody, human IgG2, kappa, V domains shown, Phage-derived human light chain with the humanized Ab-C IgG2 heavy chain) VH: QVQLVQSGAEVKKPGSSVKVSCKASGGTFSSTYISWVRQAPGQGLEWMGWIYAGTGGTRYNRKFTGRVTITADESTSTAYMELSSLRSEDTAVYYCAREGVDGWFTYWGQGTLVTVSS VL: DIQMTQSPSSLSASIGDRVTITCQASQDINNYLNWYQQKQGKAPKVLIFDASNLAAGVPSRFSGSGSGTDFTLTISSLQPEDIATYYCQQYDNLPLTFGQGTKVDNKR | binds
4 | light chain of SEQ ID NO: 106 paired with the heavy chain of SEQ ID NO: 24 (antibody, human IgG2, lambda, V domains shown) VH: QVQLVQSGAEVKKPGSSVKVSCKASGGTFSSTYISWVRQAPGQGLEWMGWIYAGTGGTRYNRKFTGRVTITADESTSTAYMELSSLRSEDTAVYYCAREGVDGWFTYWGQGTLVTVSS VL: NFMLTQPHSVSESPGKTITISCTRSSGSISSNYVQWYQQRPGSSPRIVMSEDDQRPSGVSDRFSGSIDISSNSAFLTISGLKPEDEGDYYCQSYDTDIPYVFGTGTKVTVLG | binds
5 | Ab-13 (antibody, human IgG2, kappa, V domains shown, Phage-derived human light chain with the humanized Ab-C IgG2 heavy chain) VH: QVQLVQSGAEVKKPGSSVKVSCKASGGTFSSTYISWVRQAPGQGLEWMGWIYAGTGGTRYNRKFTGRVTITADESTSTAYMELSSLRSEDTAVYYCAREGVDGWFTYWGQGTLVTVSS VL: DIQMTQSPSSLSASVGDRVTITCRASQSISEYLNWYQQKPGQAPRLLIYGVSTRATGIAARFSGSGSGTDFTLTISSLQPEDSAVYYCQQDYNVPYTFGQGTKLEIKR | binds
6 | Ab-18 (antibody, human IgG2, kappa, V domains shown, Phage-derived human light chain with the humanized Ab-C IgG2 heavy chain) VH: QVQLVQSGAEVKKPGSSVKVSCKASGGTFSSTYISWVRQAPGQGLEWMGWIYAGTGGTRYNRKFTGRVTITADESTSTAYMELSSLRSEDTAVYYCAREGVDGWFTYWGQGTLVTVSS VL: DIQLTQSPSSLSASVGDRVTITCQASQDINNYLSWYQQKPGKAPKVLIYDTSNLETGVPSRFSGSGSGTDFTFTISSLQPEDIATYYCQQSDNLPYTFGQGTKLEIKR | binds
7 | Ab-28 (antibody, human IgG2, kappa, V domains shown, Phage-derived human light chain with the humanized Ab-C IgG2 heavy chain) VH: QVQLVQSGAEVKKPGSSVKVSCKASGGTFSSTYISWVRQAPGQGLEWMGWIYAGTGGTRYNRKFTGRVTITADESTSTAYMELSSLRSEDTAVYYCAREGVDGWFTYWGQGTLVTVSS VL: DIQMTQSPSSLSASVGDRVTITCRASQSISDYLNWYQQRPGKAPNLLIFASNTLQGGVPSRFRGSGSGTDFTLTINSLQHEDFGTYYCQQSYRTPLTFGGGTKVEIKR | binds
8 | Ab-16 (antibody, human IgG2, kappa, V domains shown, Phage-derived human light chain with the humanized Ab-C IgG2 heavy chain) VH: QVQLVQSGAEVKKPGSSVKVSCKASGGTFSSTYISWVRQAPGQGLEWMGWIYAGTGGTRYNRKFTGRVTITADESTSTAYMELSSLRSEDTAVYYCAREGVDGWFTYWGQGTLVTVSS VL: DIQLTQSPFSLSASVGDRVTITCRASQSINDNLNWYLQKPGKAPKLLIFAASTSQSGVPSRFSGNGFGTDFSLIISGLQPEDVGTYYCQQNDSMPFTFGQGTRLDIKR | binds
9 | light chain of SEQ ID NO: 114 paired with the heavy chain of SEQ ID NO: 24 (antibody, human IgG2, kappa, V domains shown) VH: QVQLVQSGAEVKKPGSSVKVSCKASGGTFSSTYISWVRQAPGQGLEWMGWIYAGTGGTRYNRKFTGRVTITADESTSTAYMELSSLRSEDTAVYYCAREGVDGWFTYWGQGTLVTVSS VL: NIQMTQSPGTLSLSPGERATLSCRASQSVTGNHLAWYQQKPGQAPRVLMYDTSSRATGIPDRFSGSGSGTDFTLTISSLQPEDIATYYCQQFDNLPYTFGQGTKLEIKR | binds
10 | Ab-66 (antibody, human IgG2, lambda, V domains shown, Phage-derived human light chain with the humanized Ab-C IgG2 heavy chain) V domain 1: QSVVTQPPSVSGAPGQRVTISCTGSSSNIGAGYDVHWYQQLPGAAPKVLIFGNNNRPSGIPDRVSGSKSGTSASLAISGLQTEDEAVYYCQSYDSSLSAYVFGGGTQVTVLG V domain 2: QVQLVQSGAEVKKPGSSVKVSCKASGGTFSSTYISWVRQAPGQGLEWMGWIYAGTGGTRYNRKFTGRVTITADESTSTAYMELSSLRSEDTAVYYCAREGVDGWFTYWGQGTLVTVSS | binds
11 | Ab-24 (antibody, human IgG2, kappa, V domains shown, Phage-derived human light chain with the humanized Ab-C IgG2 heavy chain) VH: QVQLVQSGAEVKKPGSSVKVSCKASGGTFSSTYISWVRQAPGQGLEWMGWIYAGTGGTRYNRKFTGRVTITADESTSTAYMELSSLRSEDTAVYYCAREGVDGWFTYWGQGTLVTVSS VL: ETTLTQSPALLSLSPGERATLSCRASQTLSFDFFAWYQQKPGQAPSLLISGISTRAAGVPDRFSGSGSGTDFTLTIDRLEPEDFAVYFCQQSSSLPLTFGGGTKVEIRR | binds
12 | Ab-29 (antibody, human IgG2, kappa, V domains shown, Phage-derived human light chain with the humanized Ab-C IgG2 heavy chain) VH: QVQLVQSGAEVKKPGSSVKVSCKASGGTFSSTYISWVRQAPGQGLEWMGWIYAGTGGTRYNRKFTGRVTITADESTSTAYMELSSLRSEDTAVYYCAREGVDGWFTYWGQGTLVTVSS VL: DIQMTQSPLSLSASVGDRVAITCRASQSISDSLNWYQQKPGKPPKIVIYAASGLPSGVPSRFSGGGSGTDFTLVISTLQPEDFATYYCQQSYSAPLTFGGGTKVEISR | binds
13 | Ab-23 (antibody, human IgG2, kappa, V domains shown, Phage-derived human light chain with the humanized Ab-C IgG2 heavy chain) VH: QVQLVQSGAEVKKPGSSVKVSCKASGGTFSSTYISWVRQAPGQGLEWMGWIYAGTGGTRYNRKFTGRVTITADESTSTAYMELSSLRSEDTAVYYCAREGVDGWFTYWGQGTLVTVSS VL: DIQMTQSPGTLSLSPGERATLFCRASQRVSSSYLAWYQQRPGQAPRLLMYGTSSWATGIPDRFSGSGSGTDFTLTISSLQPEDFATYYCQQSSSIPYTFGQGTKLEIKR | binds
14 | light chain of SEQ ID NO: 108 paired with the heavy chain of SEQ ID NO: 24 (antibody, human IgG2, kappa, V domains shown) VH: QVQLVQSGAEVKKPGSSVKVSCKASGGTFSSTYISWVRQAPGQGLEWMGWIYAGTGGTRYNRKFTGRVTITADESTSTAYMELSSLRSEDTAVYYCAREGVDGWFTYWGQGTLVTVSS VL: DIQMTQSPSSLSASVGDRITISCQASQDIDNYLNWYQQKSGKAPKLLIYDAYNLKAGVPSRFRGSRSGTDFFLTISSLQPEDFATYYCLQQYRYPLTFGGGTKVEIKR | binds
15 | Ab-63 (antibody, human IgG2, lambda, V domains shown, Phage-derived human light chain with the humanized Ab-C IgG2 heavy chain) VH: QVQLVQSGAEVKKPGSSVKVSCKASGGTFSSTYISWVRQAPGQGLEWMGWIYAGTGGTRYNRKFTGRVTITADESTSTAYMELSSLRSEDTAVYYCAREGVDGWFTYWGQGTLVTVSS VL: QSALTQTPSVSGTPGQRVTISCTGSRSNIGAGYDVQWYQQFPGTAPRLLIYANNIRSSGVPDRFSGSKSGTSASLAITGLQAEDEATYYCQSYDRSLSGYVFGTGTEVTVVG | binds
16 | light chain of SEQ ID NO: 104 paired with the heavy chain of SEQ ID NO: 24 (antibody, human IgG2, lambda, V domains shown, Phage-derived human light chain with the humanized Ab-C IgG2 heavy chain) VH: QVQLVQSGAEVKKPGSSVKVSCKASGGTFSSTYISWVRQAPGQGLEWMGWIYAGTGGTRYNRKFTGRVTITADESTSTAYMELSSLRSEDTAVYYCAREGVDGWFTYWGQGTLVTVSS VL: NFMLTQPHSVSESPGKTVTISCTRNSGSIASNYVQWYQQRPGSSPATVIYEDNQRPSGVPDRFSGSIDISSNSASLTISGLKTEDEADYYCQSYDSSNPFYVFGTGTKVTVLG | binds
17 | Ab-60 (antibody, human IgG2, lambda, V domains shown, Phage-derived human light chain with the humanized Ab-C IgG2 heavy chain) VH: QVQLVQSGAEVKKPGSSVKVSCKASGGTFSSTYISWVRQAPGQGLEWMGWIYAGTGGTRYNRKFTGRVTITADESTSTAYMELSSLRSEDTAVYYCAREGVDGWFTYWGQGTLVTVSS VL: QSVVTQPPAVSGAPGQRITISCTGSSSNIGAGYDVHWYQQFPGTAPKVLIFANDYRPSGVPDRFSASKSATSASLAIRGLQSEDEADYYCQSYDNRLSGYVFGTGTKVTVLG | binds
18 | light chain of SEQ ID NO: 110 paired with the heavy chain of SEQ ID NO: 24 (antibody, human IgG2, lambda, V domains shown) VH: QVQLVQSGAEVKKPGSSVKVSCKASGGTFSSTYISWVRQAPGQGLEWMGWIYAGTGGTRYNRKFTGRVTITADESTSTAYMELSSLRSEDTAVYYCAREGVDGWFTYWGQGTLVTVSS VL: QSVLTQPPSVSGAPGQRVTISCTGGSSNIGAGYEVHWYQLVPGRAPRFLIHGDNDRPSGVPDRFSASESGSSSFLAISGLQDDDEADYYCQSYDTSLSAWVFGGGTKLTVLG | binds
19 | Ab-62 (antibody, human IgG2, lambda, V domains shown, Phage-derived human light chain with the humanized Ab-C IgG2 heavy chain) VH: QVQLVQSGAEVKKPGSSVKVSCKASGGTFSSTYISWVRQAPGQGLEWMGWIYAGTGGTRYNRKFTGRVTITADESTSTAYMELSSLRSEDTAVYYCAREGVDGWFTYWGQGTLVTVSS VL: QAVLTQPSSVSGAPGRRVTISCTGSSSNIGAGYDVHWYQQLPGKAPKLVISANTNRPSGVPDRFSGSKSGTSASLAITGLQAEDEADYYCQSYDNSVSAYVFGTGTKVTVLG | binds
20 | Ab-65 (antibody, human IgG2, lambda, V domains shown, Phage-derived human light chain with the humanized Ab-C IgG2 heavy chain) VH: QVQLVQSGAEVKKPGSSVKVSCKASGGTFSSTYISWVRQAPGQGLEWMGWIYAGTGGTRYNRKFTGRVTITADESTSTAYMELSSLRSEDTAVYYCAREGVDGWFTYWGQGTLVTVSS VL: QSVLTQPPSVSGAPGQRVTISCTGSSSNIGAGYDVHWYQQLPRTAPKLLIYGDTNRPSGVPDRFSGSKSGTSASLAITGLQTEDEADYYCQSYDSSLRAYVFGTGTKVTVLG | binds
21 | light chain of SEQ ID NO: 118 paired with the heavy chain of SEQ ID NO: 24 (antibody, human IgG2, kappa, V domains shown) VH: QVQLVQSGAEVKKPGSSVKVSCKASGGTFSSTYISWVRQAPGQGLEWMGWIYAGTGGTRYNRKFTGRVTITADESTSTAYMELSSLRSEDTAVYYCAREGVDGWFTYWGQGTLVTVSS VL: DIQMTQSPDSLSASVGDRITISCQASQDIDNYLNWYQQRSGKAPKLLIYDAYNLKAGVPSRFRGSRSGTDFFLTISSLQPEDFGTYYCLQQSSYPLTFGQGTKVEIKR | binds
